Among the data in article PMC10786891, “Massively parallel profiling of RNA-targeting CRISPR-Cas13d” are Kd values, retold here.

Where a chain is given by its changes, count along the chain named. Names and notes keep the numbering of the source.

Sequences and labels used below:
T1: EsCas13d, nuclease-dead (Eubacterium siraeum, UniProt B0MS50, R295A;H300A;R849A;H854A)
T1 sequence: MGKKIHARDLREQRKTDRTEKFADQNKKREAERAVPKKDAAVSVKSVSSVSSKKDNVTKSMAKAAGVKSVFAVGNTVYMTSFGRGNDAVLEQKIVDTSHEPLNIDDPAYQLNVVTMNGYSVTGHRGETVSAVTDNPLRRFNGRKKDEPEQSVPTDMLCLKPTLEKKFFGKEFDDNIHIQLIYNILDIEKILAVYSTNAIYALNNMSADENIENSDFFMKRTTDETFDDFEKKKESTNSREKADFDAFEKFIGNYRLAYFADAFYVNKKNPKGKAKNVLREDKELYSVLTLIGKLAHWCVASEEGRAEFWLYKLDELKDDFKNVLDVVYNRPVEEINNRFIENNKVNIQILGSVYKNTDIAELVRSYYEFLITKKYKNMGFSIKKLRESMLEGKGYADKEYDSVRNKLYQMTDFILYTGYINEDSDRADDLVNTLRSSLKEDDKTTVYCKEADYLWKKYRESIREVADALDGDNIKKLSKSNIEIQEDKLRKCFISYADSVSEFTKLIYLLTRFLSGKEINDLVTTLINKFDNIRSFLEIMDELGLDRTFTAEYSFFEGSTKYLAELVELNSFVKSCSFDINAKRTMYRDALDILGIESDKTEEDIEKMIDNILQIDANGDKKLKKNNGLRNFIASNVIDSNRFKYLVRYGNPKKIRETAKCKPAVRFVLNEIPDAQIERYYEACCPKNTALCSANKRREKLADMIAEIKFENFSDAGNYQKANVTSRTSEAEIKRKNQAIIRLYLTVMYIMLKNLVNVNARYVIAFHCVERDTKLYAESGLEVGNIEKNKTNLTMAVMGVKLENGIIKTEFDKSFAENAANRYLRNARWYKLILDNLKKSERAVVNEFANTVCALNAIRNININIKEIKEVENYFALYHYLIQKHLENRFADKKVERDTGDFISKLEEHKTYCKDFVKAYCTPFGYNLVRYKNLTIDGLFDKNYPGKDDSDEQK

B1: target 1 G13A,A14U (mixed)
RNA 1: CACCCGUGCAAAAAUGCAGGGGUCUAAAACUGAGCGGAUAACCUCUCUAUGG
RNA 2: GGGAAUGGAUCCACAUCUACGAAUUCGUACCAUAGAGUAGUUAUCCGCUCACCGAGAUCGGAAGAGCACACGU
B2: target 1 insA 3' of 21,insA 3' of 11 (mixed)
RNA 1: B1 RNA 1
RNA 2: GGGAAUGGAUCCACAUCUACGAAUUCGUACCAAUAGAGAGGUAUAUCCGCUCACCGAGAUCGGAAGAGCACACGU
B3: target 1 insU 3' of 18,insU 3' of 1 (mixed)
RNA 1: B1 RNA 1
RNA 2: GGGAAUGGAUCCACAUCUACGAAUUCGUACCAUAUGAGAGGUUAUCCGCUCAUCCGAGAUCGGAAGAGCACACGU
B4: target 1 insA 3' of 5,insU 3' of 2 (mixed)
RNA 1: B1 RNA 1
RNA 2: GGGAAUGGAUCCACAUCUACGAAUUCGUACCAUAGAGAGGUUAUCCGACUCUACCGAGAUCGGAAGAGCACACGU
B5: target 1 insG 3' of 19,insA 3' of 15 (mixed)
RNA 1: B1 RNA 1
RNA 2: B2 RNA 2 with A33U, U34G, G40A, U42G, A43U
B6: target 1 G12U,A18G (mixed)
RNA 1: B1 RNA 1
RNA 2: B1 RNA 2 with A34G, U38A, A39G, G40U
B7: target 1 insC 3' of 17,insU 3' of 5 (mixed)
RNA 1: B1 RNA 1
RNA 2: B3 RNA 2 with U35G, G36C, C49U, U50C, C51U, A52C, U53A
B8: target 1 insU 3' of 20,insA 3' of 6 (mixed)
RNA 1: B1 RNA 1
RNA 2: B2 RNA 2 with A33U, A43U, U44A, A45U, U46C, C48A
B9: target 1 insU 3' of 9,insA 3' of 6 (mixed)
RNA 1: B1 RNA 1
RNA 2: B4 RNA 2 with C45U, G47C, C49G, U50C, C51U, U52C
B10: target 1 insU 3' of 5,insC 3' of 5 (mixed)
RNA 1: B1 RNA 1
RNA 2: B4 RNA 2 with A48U, U50C, C51U, U52C
B11: target 1 insA 3' of 6,insU 3' of 4 (mixed)
RNA 1: B1 RNA 1
RNA 2: B4 RNA 2 with G47A, A48G, C51U, U52C
B12: target 1 insA 3' of 19,insA 3' of 11 (mixed)
RNA 1: B1 RNA 1
RNA 2: B2 RNA 2 with A33U, U34A
B13: target 1 A1U,C6A (mixed)
RNA 1: B1 RNA 1
RNA 2: B1 RNA 2 with U38A, A39G, C46A, A51U
B14: target 1 C6A,C7A (mixed)
RNA 1: B1 RNA 1
RNA 2: B1 RNA 2 with U38A, A39G, C45A, C46A
B15: target 1 U3G,G5A (mixed)
RNA 1: B1 RNA 1
RNA 2: B1 RNA 2 with U38A, A39G, G47A, U49G
B16: target 1 U8A,G12U (mixed)
RNA 1: B1 RNA 1
RNA 2: B1 RNA 2 with U38A, A39G, G40U, U44A
B17: target 1 U10G,A14C (mixed)
RNA 1: B1 RNA 1
RNA 2: B1 RNA 2 with U38C, A39G, U42G
B18: target 1 complement block 6-9 (mixed)
RNA 1: B1 RNA 1
RNA 2: B1 RNA 2 with U38A, A39G, A43U, U44A, C45G, C46G
B19: target 1 del13 (mixed)
RNA 1: B1 RNA 1
RNA 2: GGGAAUGGAUCCACAUCUACGAAUUCGUACCAUAGAGAGUUAUCCGCUCACCGAGAUCGGAAGAGCACACGU
B20: target 1 del9,del13 (mixed)
RNA 1: B1 RNA 1
RNA 2: GGGAAUGGAUCCACAUCUACGAAUUCGUACCAUAGAGAGUUUCCGCUCACCGAGAUCGGAAGAGCACACGU
B21: target 1 del11,del13 (mixed)
RNA 1: B1 RNA 1
RNA 2: B20 RNA 2 with U41A
B22: target 1 C6A (mixed)
RNA 1: B1 RNA 1
RNA 2: B1 RNA 2 with U38A, A39G, C46A
B23: target 1 insC 3' of 9,insA 3' of 4 (mixed)
RNA 1: B1 RNA 1
RNA 2: B4 RNA 2 with U44C, C45U, G47C, A48G, U50A, C51U, U52C
B24: target 1 C7G,U11A (mixed)
RNA 1: B1 RNA 1
RNA 2: B1 RNA 2 with U38A, A39G, U41A, C45G
B25: target 1 insU 3' of 9,insU 3' of 6 (mixed)
RNA 1: B1 RNA 1
RNA 2: B4 RNA 2 with C45U, G47C, A48U, C49G, U50C, C51U, U52C
B26: target 1 insC 3' of 10,insA 3' of 5 (mixed)
RNA 1: B1 RNA 1
RNA 2: B4 RNA 2 with A43C, U44A, C45U, G47C, A48G, C49A, U50C, C51U, U52C
B27: target 1 insA 3' of 19,insU 3' of 12 (mixed)
RNA 1: B1 RNA 1
RNA 2: B2 RNA 2 with A33U, U34A, A43U

This data set addresses T1, EsCas13d, nuclease-dead. The data set can be described thus: crRNA (strand 1, pre-loaded); Mg2+; 40 mM Tris-HCl pH 7.5, 150 mM NaCl, 6 mM MgCl2, 1 mM DTT, 0.1% Tween-20, 0.2 mg/ml BSA; 25 C; 10 min per concentration, then washed. Conditions: tags: His6-TwinStrep-SUMO cleaved; N-terminal SNAP kept (SNAP-Surface 488); label: 3' end held by stalled T7 RNA polymerase.
The molecule B1 had a Kd of 6.6 ± 0.7 nM.
The molecule B2 displayed a Kd of 36.6 ± 2.9 nM.
B3 yielded a Kd of 33 ± 1.8 nM.
B4 registered a Kd of 14.7 ± 0.9 nM.
Molecule B5 gave an equilibrium dissociation constant (Kd) of 56 ± 7 nM.
The same measure for B6: 78 ± 16 nM; for B7: 35.2 ± 3.2 nM; for B8: 15.9 ± 1.1 nM.
B9 yielded a Kd of 23.5 ± 2.7 nM.
In the case of B10, the dissociation constant (Kd) was determined as 35 ± 4 nM.
As for B11, the figure is 19.8 ± 1.1 nM.
The same measure for B12: 41.3 ± 2.2 nM; for B13: 7.5 ± 0.4 nM.
As for B14, the figure is 7.47 ± 0.35 nM; as for B15, 43 ± 4 nM; as for B16, 13.1 ± 0.8 nM.
Take B17: the dissociation constant (Kd) was found to be 94 ± 23 nM.
The same measure for B18: 7.7 ± 0.5 nM; for B19: 8.6 ± 0.6 nM; for B20: 21.3 ± 1.1 nM.
The same measure for B21: 11.1 ± 0.9 nM; for B22: 6.17 ± 0.3 nM; for B23: 9.5 ± 1 nM.
B24 had a dissociation constant Kd of 25 ± 4 nM.
Consider B25, for which the Kd worked out at 46 ± 6 nM.
As for B26, the figure is 10.4 ± 1.1 nM; as for B27, 17.9 ± 1.2 nM.

Usually Kd stands for the equilibrium constant for the complex coming apart. Lower therefore signals higher affinity.
